B1: TOR1AIP2 (parent)
chain: AGQEGEDTLRRRLLAPEAGSHPQQ

Variants of: B1
Assay: protein stability index of a GFP-peptide fusion (GPS, HEK-293T) (PSI 1-6); higher = more stable
Settings: c terminus: a fixed tail appended
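Further: lentivirally expressed fusions sorted by FACS into six bins by GFP to DsRed ratio, PSI derived from sequencing read proportions per bin multiplied by bin number.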

First: AGQEGEDTLRCRLLAPEAGSHPQQ
Second: AGQEGEDTLRDRLLAPEAGSHPQQ
The protein stability index of the first is lower: 3.77 for the first, 5.21 for the second.

Compared with AGQEGEDTLRERLLAPEAGSHPQQ, AGQEGEDTLRFRLLAPEAGSHPQQ is lower in protein stability index: 4.6 for the first, 2.02 for the second.

First: AGQEGEDTLRGRLLAPEAGSHPQQ
Second: AGQEGEDTLRHRLLAPEAGSHPQQ
The protein stability index of the first is higher: 5.29 for the first, 2.4 for the second.

Going from AGQEGEDTLRIRLLAPEAGSHPQQ to AGQEGEDTLRKRLLAPEAGSHPQQ, the protein stability index falls from 2.85 to 2.81.

Going from AGQEGEDTLRLRLLAPEAGSHPQQ to AGQEGEDTLRMRLLAPEAGSHPQQ, the protein stability index falls from 2.85 to 2.22.

Going from AGQEGEDTLRNRLLAPEAGSHPQQ to AGQEGEDTLRPRLLAPEAGSHPQQ, the protein stability index rises from 4.6 to 5.65.

Going from AGQEGEDTLRQRLLAPEAGSHPQQ to AGQEGEDTLRSRLLAPEAGSHPQQ, the protein stability index rises from 3.78 to 4.4.

First: AGQEGEDTLRTRLLAPEAGSHPQQ
Second: AGQEGEDTLRVRLLAPEAGSHPQQ
The protein stability index of the first is higher: 3.98 for the first, 3.27 for the second.

First: AGQEGEDTLRWRLLAPEAGSHPQQ
Second: AGQEGEDTLRYRLLAPEAGSHPQQ
The protein stability index of the first is higher: 2.12 for the first, 1.16 for the second.

Compared with AGQEGEDTLRRALLAPEAGSHPQQ, AGQEGEDTLRRCLLAPEAGSHPQQ is lower in protein stability index: 2.65 for the first, 2.51 for the second.

First: AGQEGEDTLRRDLLAPEAGSHPQQ
Second: AGQEGEDTLRRELLAPEAGSHPQQ
The protein stability index of the first is lower: 4.7 for the first, 4.75 for the second.

Compared with AGQEGEDTLRRFLLAPEAGSHPQQ, AGQEGEDTLRRGLLAPEAGSHPQQ is higher in protein stability index: 1.83 for the first, 4.97 for the second.

Compared with AGQEGEDTLRRHLLAPEAGSHPQQ, AGQEGEDTLRRILLAPEAGSHPQQ is lower in protein stability index: 3.29 for the first, 1.93 for the second.

Going from AGQEGEDTLRRKLLAPEAGSHPQQ to AGQEGEDTLRRLLLAPEAGSHPQQ, the protein stability index falls from 3.55 to 2.56.

First: AGQEGEDTLRRMLLAPEAGSHPQQ
Second: AGQEGEDTLRRNLLAPEAGSHPQQ
The protein stability index of the first is lower: 1.8 for the first, 3.89 for the second.

First: AGQEGEDTLRRPLLAPEAGSHPQQ
Second: AGQEGEDTLRRQLLAPEAGSHPQQ
The protein stability index of the first is higher: 5.19 for the first, 2.87 for the second.

First: AGQEGEDTLRRSLLAPEAGSHPQQ
Second: AGQEGEDTLRRTLLAPEAGSHPQQ
The protein stability index of the first is higher: 3.03 for the first, 2.35 for the second.

Compared with AGQEGEDTLRRVLLAPEAGSHPQQ, AGQEGEDTLRRYLLAPEAGSHPQQ is lower in protein stability index: 2.47 for the first, 2.3 for the second.

Going from AGQEGEDTLRRRALAPEAGSHPQQ to AGQEGEDTLRRRCLAPEAGSHPQQ, the protein stability index falls from 3.81 to 3.48.

First: AGQEGEDTLRRRDLAPEAGSHPQQ
Second: AGQEGEDTLRRRELAPEAGSHPQQ
The protein stability index of the first is lower: 4.91 for the first, 5.53 for the second.

Compared with AGQEGEDTLRRRFLAPEAGSHPQQ, AGQEGEDTLRRRGLAPEAGSHPQQ is higher in protein stability index: 3.32 for the first, 5.55 for the second.

First: AGQEGEDTLRRRHLAPEAGSHPQQ
Second: AGQEGEDTLRRRILAPEAGSHPQQ
The protein stability index of the first is higher: 4.82 for the first, 1.82 for the second.

First: AGQEGEDTLRRRKLAPEAGSHPQQ
Second: AGQEGEDTLRRRMLAPEAGSHPQQ
The protein stability index of the first is higher: 5.21 for the first, 2.22 for the second.

Compared with AGQEGEDTLRRRNLAPEAGSHPQQ, AGQEGEDTLRRRPLAPEAGSHPQQ is higher in protein stability index: 5.55 for the first, 5.6 for the second.

Compared with AGQEGEDTLRRRQLAPEAGSHPQQ, AGQEGEDTLRRRRLAPEAGSHPQQ is lower in protein stability index: 5.15 for the first, 5.04 for the second.

Going from AGQEGEDTLRRRSLAPEAGSHPQQ to AGQEGEDTLRRRTLAPEAGSHPQQ, the protein stability index falls from 5.22 to 5.03.

Going from AGQEGEDTLRRRVLAPEAGSHPQQ to AGQEGEDTLRRRWLAPEAGSHPQQ, the protein stability index falls from 3.31 to 3.21.

Going from AGQEGEDTLRRRYLAPEAGSHPQQ to AGQEGEDTLRRRLAAPEAGSHPQQ, the protein stability index rises from 4.14 to 5.73.

Compared with AGQEGEDTLRRRLCAPEAGSHPQQ, AGQEGEDTLRRRLDAPEAGSHPQQ is higher in protein stability index: 4.91 for the first, 5.59 for the second.

Going from AGQEGEDTLRRRLEAPEAGSHPQQ to AGQEGEDTLRRRLFAPEAGSHPQQ, the protein stability index falls from 5.37 to 4.25.

Compared with AGQEGEDTLRRRLGAPEAGSHPQQ, AGQEGEDTLRRRLHAPEAGSHPQQ is higher in protein stability index: 5.21 for the first, 5.5 for the second.

Compared with AGQEGEDTLRRRLIAPEAGSHPQQ, AGQEGEDTLRRRLKAPEAGSHPQQ is higher in protein stability index: 5.06 for the first, 5.51 for the second.

First: AGQEGEDTLRRRLMAPEAGSHPQQ
Second: AGQEGEDTLRRRLNAPEAGSHPQQ
The protein stability index of the first is lower: 4.6 for the first, 5.56 for the second.

Compared with AGQEGEDTLRRRLPAPEAGSHPQQ, AGQEGEDTLRRRLQAPEAGSHPQQ is lower in protein stability index: 5.93 for the first, 5.68 for the second.

First: AGQEGEDTLRRRLRAPEAGSHPQQ
Second: AGQEGEDTLRRRLSAPEAGSHPQQ
The protein stability index of the first is lower: 5.17 for the first, 5.63 for the second.

Going from AGQEGEDTLRRRLTAPEAGSHPQQ to AGQEGEDTLRRRLVAPEAGSHPQQ, the protein stability index falls from 5.58 to 5.37.

First: AGQEGEDTLRRRLWAPEAGSHPQQ
Second: AGQEGEDTLRRRLYAPEAGSHPQQ
The protein stability index of the first is higher: 4.69 for the first, 4.5 for the second.

Going from AGQEGEDTLRRRLLCPEAGSHPQQ to AGQEGEDTLRRRLLDPEAGSHPQQ, the protein stability index rises from 1.34 to 5.39.

First: AGQEGEDTLRRRLLEPEAGSHPQQ
Second: AGQEGEDTLRRRLLFPEAGSHPQQ
The protein stability index of the first is higher: 5.18 for the first, 4.87 for the second.

First: AGQEGEDTLRRRLLGPEAGSHPQQ
Second: AGQEGEDTLRRRLLHPEAGSHPQQ
The protein stability index of the first is lower: 4.34 for the first, 5.18 for the second.

Compared with AGQEGEDTLRRRLLIPEAGSHPQQ, AGQEGEDTLRRRLLKPEAGSHPQQ is higher in protein stability index: 4.48 for the first, 5.44 for the second.

First: AGQEGEDTLRRRLLLPEAGSHPQQ
Second: AGQEGEDTLRRRLLMPEAGSHPQQ
The protein stability index of the first is higher: 5.02 for the first, 4.55 for the second.

Compared with AGQEGEDTLRRRLLNPEAGSHPQQ, AGQEGEDTLRRRLLPPEAGSHPQQ is higher in protein stability index: 4.55 for the first, 5.46 for the second.

Compared with AGQEGEDTLRRRLLQPEAGSHPQQ, AGQEGEDTLRRRLLRPEAGSHPQQ is higher in protein stability index: 4.9 for the first, 5.03 for the second.

First: AGQEGEDTLRRRLLSPEAGSHPQQ
Second: AGQEGEDTLRRRLLTPEAGSHPQQ
The protein stability index of the first is lower: 3 for the first, 3.68 for the second.

Going from AGQEGEDTLRRRLLVPEAGSHPQQ to AGQEGEDTLRRRLLWPEAGSHPQQ, the protein stability index falls from 5.17 to 4.49.

Compared with AGQEGEDTLRRRLLYPEAGSHPQQ, AGQEGEDTLRRRLLAAEAGSHPQQ is higher in protein stability index: 4.12 for the first, 5.48 for the second.

Reference: the supplement of paper PMC10567573
